Values belong to the binder of their own block, whether it stands above or below them.
Key:
4H662-AA = biological target: T1, 4H662-AA; test: two-hybrid library CCmax; conditions: mean of both orientations;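 further: natural log of median RNA to DNA barcode read ratio; higher means stronger binding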
T1 chain: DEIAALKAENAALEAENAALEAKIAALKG

4H3922-AA = biological target: T2, 4H3922-AA; test: two-hybrid library CCmax; conditions: mean of both orientations;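 further: natural log of median RNA to DNA barcode read ratio; higher means stronger binding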
T2 chain: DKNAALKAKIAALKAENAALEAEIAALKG

4H55-AA = biological target: T3, 4H55-AA; test: two-hybrid library CCmax; conditions: mean of both orientations;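 further: natural log of median RNA to DNA barcode read ratio; higher means stronger binding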
T3 chain: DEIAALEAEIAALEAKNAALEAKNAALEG

4H481-AA = biological target: T4, 4H481-AA; test: two-hybrid library CCmax; conditions: mean of both orientations;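 further: natural log of median RNA to DNA barcode read ratio; higher means stronger binding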
T4 chain: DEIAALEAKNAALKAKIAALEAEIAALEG

4H369-AA = biological target: T5, 4H369-AA; test: two-hybrid library CCmax
T5 chain: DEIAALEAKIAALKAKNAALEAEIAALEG

4H4033-AA = biological target: T6, 4H4033-AA; test: two-hybrid library CCmax; conditions: mean of both orientations
T6 chain: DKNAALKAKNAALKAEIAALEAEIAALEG

4H575-bH = biological target: T7, 4H575-bH; test: two-hybrid library CCNG1
T7 chain: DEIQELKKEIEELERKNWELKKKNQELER

4H968-bH = biological target: T8, 4H968-bH; test: two-hybrid library CCNG1
T8 chain: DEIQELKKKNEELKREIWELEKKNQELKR

4H918-bH = biological target: T9, 4H918-bH; test: two-hybrid library CCNG1
T9 chain: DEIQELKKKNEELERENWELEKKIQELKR

4H797-bH = biological target: T10, 4H797-bH; test: two-hybrid library CCNG1
T10 chain: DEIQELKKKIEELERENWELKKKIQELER

4H855-bH = biological target: T11, 4H855-bH; test: two-hybrid library CCNG1
T11 chain: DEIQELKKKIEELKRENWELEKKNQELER

4H953-bH = biological target: T12, 4H953-bH; test: two-hybrid library CCNG1
T12 chain: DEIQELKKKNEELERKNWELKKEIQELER

4H780-bH = biological target: T13, 4H780-bH; test: two-hybrid library CCNG1
T13 chain: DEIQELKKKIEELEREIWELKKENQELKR

4H683-bH = biological target: T14, 4H683-bH; test: two-hybrid library CCNG1
T14 chain: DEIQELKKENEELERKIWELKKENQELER

4H754-bH = biological target: T15, 4H754-bH; test: two-hybrid library CCNG1
T15 chain: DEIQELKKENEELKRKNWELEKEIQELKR

4H949-bH = biological target: T16, 4H949-bH; test: two-hybrid library CCNG1
T16 chain: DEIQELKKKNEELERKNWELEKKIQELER

4H906-bA = biological target: T17, 4H906-bA; test: two-hybrid library CCNG1
T17 chain: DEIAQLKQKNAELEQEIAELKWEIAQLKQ

4H626-bA = biological target: T18, 4H626-bA; test: two-hybrid library CCNG1
T18 chain: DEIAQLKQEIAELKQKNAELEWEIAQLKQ

4H391-AA = biological target: T19, 4H391-AA; test: two-hybrid library CCmax; conditions: mean of both orientations
T19 chain: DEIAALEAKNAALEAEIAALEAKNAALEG

4H3121-AA = biological target: T20, 4H3121-AA; test: two-hybrid library CCmax; conditions: mean of both orientations
T20 chain: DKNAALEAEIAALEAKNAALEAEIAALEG

4H3066-AA = biological target: T21, 4H3066-AA; test: two-hybrid library CCmax
T21 chain: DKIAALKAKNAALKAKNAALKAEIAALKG

4H3920-AA = biological target: T22, 4H3920-AA; test: two-hybrid library CCmax; conditions: mean of both orientations
T22 chain: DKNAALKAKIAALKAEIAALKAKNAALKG

4H3628-AA = biological target: T23, 4H3628-AA; test: two-hybrid library CCmax; conditions: mean of both orientations
T23 chain: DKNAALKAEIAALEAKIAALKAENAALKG

4H656-AA = biological target: T24, 4H656-AA; test: two-hybrid library CCmax; conditions: mean of both orientations
T24 chain: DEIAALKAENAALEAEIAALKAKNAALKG

4H3939-AA = biological target: T25, 4H3939-AA; test: two-hybrid library CCmax; conditions: mean of both orientations
T25 chain: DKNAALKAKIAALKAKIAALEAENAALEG

4H497-AA = biological target: T26, 4H497-AA; test: two-hybrid library CCmax; conditions: mean of both orientations
T26 chain: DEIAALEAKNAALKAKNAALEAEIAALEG

4H3102-AA = biological target: T27, 4H3102-AA; test: two-hybrid library CCmax; conditions: mean of both orientations
T27 chain: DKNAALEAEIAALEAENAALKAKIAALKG

4H3591-AA = biological target: T28, 4H3591-AA; test: two-hybrid library CCmax; conditions: mean of both orientations
T28 chain: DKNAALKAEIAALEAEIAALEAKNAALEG

4H675-AA = biological target: T29, 4H675-AA; test: two-hybrid library CCmax; conditions: mean of both orientations
T29 chain: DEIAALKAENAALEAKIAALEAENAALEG

4H3417-AA = biological target: T30, 4H3417-AA; test: two-hybrid library CCmax; conditions: mean of both orientations
T30 chain: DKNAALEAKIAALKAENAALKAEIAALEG

4H428-AA = biological target: T31, 4H428-AA; test: two-hybrid library CCmax; conditions: mean of both orientations
T31 chain: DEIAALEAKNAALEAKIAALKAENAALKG

4H3446-AA = biological target: T32, 4H3446-AA; test: two-hybrid library CCmax; conditions: mean of both orientations
T32 chain: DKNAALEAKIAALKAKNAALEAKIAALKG

4H3666-AA = biological target: T33, 4H3666-AA; test: two-hybrid library CCmax; conditions: mean of both orientations
T33 chain: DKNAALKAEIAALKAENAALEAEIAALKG

4H478-AA = biological target: T34, 4H478-AA; test: two-hybrid library CCmax; conditions: mean of both orientations
T34 chain: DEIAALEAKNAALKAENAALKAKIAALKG

4H971-AA = biological target: T35, 4H971-AA; test: two-hybrid library CCmax; conditions: mean of both orientations
T35 chain: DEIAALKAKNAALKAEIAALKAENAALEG

4H3709-AA = biological target: T36, 4H3709-AA; test: two-hybrid library CCmax; conditions: mean of both orientations
T36 chain: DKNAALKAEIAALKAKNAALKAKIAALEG

4H968-bN = biological target: T37, 4H968-bN; test: two-hybrid library CCNG1
T37 chain: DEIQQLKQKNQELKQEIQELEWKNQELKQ

4H953-bN = biological target: T38, 4H953-bN; test: two-hybrid library CCNG1
T38 chain: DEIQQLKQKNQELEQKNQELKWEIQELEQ

4H754-bN = biological target: T39, 4H754-bN; test: two-hybrid library CCNG1
T39 chain: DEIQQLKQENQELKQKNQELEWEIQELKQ

4H780-bN = biological target: T40, 4H780-bN; test: two-hybrid library CCNG1
T40 chain: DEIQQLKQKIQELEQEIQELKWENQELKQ

4H683-bN = biological target: T41, 4H683-bN; test: two-hybrid library CCNG1
T41 chain: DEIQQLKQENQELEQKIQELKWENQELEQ

4H918-bN = biological target: T42, 4H918-bN; test: two-hybrid library CCNG1
T42 chain: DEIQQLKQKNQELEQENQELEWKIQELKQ

4H797-bN = biological target: T43, 4H797-bN; test: two-hybrid library CCNG1
T43 chain: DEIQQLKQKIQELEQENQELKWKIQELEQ

4H855-bN = biological target: T44, 4H855-bN; test: two-hybrid library CCNG1
T44 chain: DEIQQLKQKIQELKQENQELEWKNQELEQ

Binder: DEIAALEAKIAALKAKNAALEAEIAALEG [4H369-AA]
interaction score (4H662-AA): 1.3 | interaction score (4H3922-AA): 0.000191 | interaction score (4H55-AA): -0.33 | interaction score (4H481-AA): -0.912 | interaction score (4H369-AA): -0.526 | interaction score (4H4033-AA): -0.678

Binder: DEIQELKKEIEELERKNWELKKKNQELER [4H575-bH]
interaction score (4H575-bH): -0.14 | interaction score (4H968-bH): -1.01 | interaction score (4H918-bH): -0.438 | interaction score (4H797-bH): -0.434 | interaction score (4H855-bH): 1.37 | interaction score (4H953-bH): -0.118 | interaction score (4H780-bH): -0.754 | interaction score (4H683-bH): -0.243 | interaction score (4H754-bH): -0.631

Binder: DEIQELKKENEELERKIWELKKENQELER [4H683-bH]
interaction score (4H968-bH): 1.12 | interaction score (4H918-bH): -1.01 | interaction score (4H797-bH): -0.161 | interaction score (4H855-bH): -0.174 | interaction score (4H953-bH): -1.23 | interaction score (4H780-bH): -0.661 | interaction score (4H683-bH): 0.562 | interaction score (4H754-bH): -0.187 | interaction score (4H949-bH): -0.385

Binder: DEIAQLKQEIAELKQKNAELEWEIAQLKQ [4H626-bA]
interaction score (4H906-bA): -1.23 | interaction score (4H626-bA): 0.86

The remaining lines, values ahead:

interaction score (4H391-AA): -1.09 | interaction score (4H3121-AA): -0.941 | interaction score (4H3066-AA): -0.506 | interaction score (4H3920-AA): -1.87 | interaction score (4H3628-AA): -1.85 | interaction score (4H656-AA): 0.231 | interaction score (4H3939-AA): -2.16 | interaction score (4H497-AA): -0.971 | interaction score (4H3102-AA): 0.0998 | interaction score (4H3591-AA): -1.59 | interaction score (4H675-AA): -1.19 | interaction score (4H3417-AA): -2.18 | interaction score (4H428-AA): -1.26 | interaction score (4H3446-AA): -1.7 | interaction score (4H3666-AA): 0.0105 | interaction score (4H478-AA): 1.25 | interaction score (4H971-AA): -1.81 | interaction score (4H3709-AA): -1.94
Binder: DKIAALKAKNAALKAKNAALKAEIAALKG [4H3066-AA]

interaction score (4H968-bN): 1.51 | interaction score (4H953-bN): -0.218 | interaction score (4H754-bN): -1.46 | interaction score (4H780-bN): -0.606 | interaction score (4H683-bN): -0.0866 | interaction score (4H918-bN): -0.318 | interaction score (4H797-bN): 0.0127 | interaction score (4H855-bN): -0.411
Binder: DEIQQLKQENQELEQKIQELKWENQELEQ [4H683-bN]

— paper PMC10397247
